The term stoichiometry N denotes the number of molecules, sites or subunits per partner or assembly. What is called Kd is the constant that tells how readily two partners part at equilibrium. Higher therefore signals a looser complex. The koff is a measure of how fast the partners let go of each other. Broadly, the kon is a measure of how fast the partners come together. A higher kon goes with fast association.

The results in this text go back to publication PMC5148066.

B1: mouse XCL1 (ligand)
chain: VGTEVLEESSCVNLQTQRLPVQKIKTYIIWEGAMRAVIFVTKRGLKICADPEAKWVKAAIKTVDGRASTRKNMAETVPTGAQRSTSTAITLTG
B2: mouse CCL3 (ligand)
chain: APYGADTPTACCFSYSRKIPRQFIVDYFETSSLCSQPGVIFLTKRNRQICADSKETWVQEYITDLELNA
B3: mouse CXCL2 (ligand)
chain: AVVASELRCQCLKTLPRVDFKNIQSLSVTPPGPHCAQTEVIATLKGGQKVCLDPEAPLVQKIIQKILNKGKAN
B4: mouse CCL19 (ligand)
chain: GANDAEDCCLSVTQRPIPGNIVKAFRYLLNEDGCRVPAVVFTTLRGYQLCAPPDQPWVDRIIRRLKKSSAKNKGNSTRRSPVS
B5: mouse CXCL4 (ligand)
chain: VTSAGPEESDGDLSCVCVKTISSGIHLKHITSLEVIKAGRHCAVPQLIATLKNGRKICLDRQAPLYKKVIKKILES
B6: mouse CXCL1 (ligand)
chain: APIANELRCQCLQTMAGIHLKNIQSLKVLPSGPHCTQTEVIATLKNGREACLDPEAPLVQKIVQKMLKGVPK

One assay concerns the target Bovine papular stomatitis virus chemokine-binding protein (Bovine papular stomatitis virus (strain V660 named for the sequence analysis)). The assay can be described thus: SEC-MALS; purified BPSV-CBP in solution, three concentrations (2, 1, 0.05 mg/ml). In general terms: In gel filtration, larger molecules generally elute earlier.
Molecule “Bovine papular stomatitis virus chemokine-binding protein (natural protein)” showed a stoichiometry N of 2.

Another assay addresses Bovine papular stomatitis virus chemokine-binding protein (Bovine papular stomatitis virus). The assay can be described thus: SPR; BPSV-CBP immobilised on a CM5 chip (~500 RU, amine coupling, 10 mM sodium acetate pH 4.5); serial dilutions of mouse chemokines in HBS-EP pH 7.4 flowed in triplicate, 3 min association, 10 min dissociation, 25°C, Biacore X100; global fit, 1:1 binding model. A general note: SPR reads the build-up and loss of mass on a sensor chip optically.
In the case of B1, the Kd came to 1.36 nM, the koff was 0.00135 s⁻¹ and the kon turned out to be 990000 M⁻¹ s⁻¹.

B2 gave a Kd of 0.13 nM, a koff of 0.00023 s⁻¹ and a kon of 1.76e+06 M⁻¹ s⁻¹.

Molecule B3 came in with a koff of 0.00056 s⁻¹ and a kon of 770000 M⁻¹ s⁻¹.

In turn, B4 registered a Kd of 0.00146 nM and a kon of 1.37e+07 M⁻¹ s⁻¹.

B5 had a Kd of 2.32 nM, a koff of 0.00234 s⁻¹ and a kon of 1.01e+06 M⁻¹ s⁻¹.

For the molecule B6, the Kd worked out at 4.33 nM, the koff came out at 0.00316 s⁻¹ and the kon came out at 730000 M⁻¹ s⁻¹.

Another assay has the same target. The assay is described as above. This is another data set of the same source.
Turning to “mouse CCL21 (from UniProt P84444 24-133) (ligand)”, the equilibrium dissociation constant (Kd) was determined as 0.385 nM, the koff amounted to 0.00296 s⁻¹ and the on-rate constant (kon) was 7.68e+06 M⁻¹ s⁻¹.

“mouse CCL2 (from UniProt P10148 24-148) (ligand)” yielded a Kd of 0.186 nM, a koff of 0.00022 s⁻¹ and a kon of 1.18e+06 M⁻¹ s⁻¹.

The next assay addresses Bovine papular stomatitis virus chemokine-binding protein (Bovine papular stomatitis virus (strain V660 named for the sequence analysis)). The assay can be described thus: SPR; BPSV-CBP immobilised on a CM5 chip (~500 RU) by amine coupling; serial dilutions of mouse chemokines in HBS-EP (20 mM HEPES, 150 mM NaCl, 3.4 mM EDTA, 0.005% Polysorbate 20, pH 7.4) run in triplicate, 3 min association, 10 min dissociation; 25°C, Biacore X100; global fit with a 1:1 binding model.
For B1, the Kd was found to be 1.4 nM, the koff came out at 0.0014 s⁻¹ and the kon was found to be 1e+06 M⁻¹ s⁻¹.

For the molecule B3, the Kd worked out at 0.725 nM and the koff was 0.0006 s⁻¹.

With B4, the koff was determined as 2e-05 s⁻¹.

B5: the Kd worked out at 2.3 nM. In other words, the single-digit nanomolar range.

For B6, the Kd is 4.3 nM.
